Measurements taken from doi:10.1101/2023.02.06.527249.

Columns and labels:
[1] = biological target: HLA-C*05:01 (1-278) refolded with β2-microglobulin (1-99) and P2-AW (…); experiment: SPR
[2] = biological target: HLA-C*05:01 (1-278) refolded with β2-microglobulin (1-99) and P2-AV (…); experiment: SPR
[3] = biological target: HLA-C*05:01 (1-278) refolded with β2-microglobulin (1-99) and P2-IP (…); experiment: SPR
[4] = biological target: HLA-C*16:02 on cells loaded with P9 with the Q8S substitution (…) (human | human (endogenous in 721.221)); experiment: flow cytometry on cells
[5] = biological target: HLA-C*08:02 on cells loaded with P2-MW with p6 Ile (human | human (endogenous in 721.221)); experiment: flow cytometry on cells
[6] = biological target: HLA-C*05:01 on cells loaded with P2-MW with p6 Asn (human | human (endogenous in 721.221)); experiment: flow cytometry on cells
[7] = biological target: HLA-C*08:02 on cells loaded with P2-MW with p6 Val (human | human (endogenous in 721.221)); experiment: flow cytometry on cells
[8] = biological target: HLA-C*08:02 on cells loaded with P2-MW with p6 Leu (human | human (endogenous in 721.221)); experiment: flow cytometry on cells
[9] = biological target: HLA-C*08:02 on cells loaded with P2-MW with p6 Lys (human | human (endogenous in 721.221)); experiment: flow cytometry on cells
[10] = biological target: HLA-C*08:02 on cells loaded with P2-MW with p6 Pro (human | human (endogenous in 721.221)); experiment: flow cytometry on cells

| Substance | Kd [1] [nM] | Kd [2] [nM] | Kd [3] [nM] | also measured |
| --- | --- | --- | --- | --- |
| 2DL1 (1-224), recombinant, refolded (from UniProt P43626 22-245) (domain or fragment) | 1100 | 1000 | 440 | – |
| 2DS1 (3-200), recombinant, refolded (domain or fragment) | 1900 | 2600 | 2300 | – |
| 2DS4 (3-200), recombinant, refolded (domain or fragment) | 2000 | – | – | – |
| KIR2DS1*001-Fc (from UniProt Q14954 22-245) (Fc fusion) | – | – | – | fold change of binding against unmodified P9 [4]: 5 fold |
| KIR2DS4*001 KIR-Ig (KIR-Fc) fusion protein (from UniProt P43632 22-245) (Fc fusion) | – | – | – | percent of the binding with p6 Gly (P2-MW) [5]: > 50%; percent of the binding with p6 Gly (P2-MW) [6]: > 25%; percent of the binding with p6 Gly (P2-MW) [7]: > 50%; percent of the binding with p6 Gly (P2-MW) [8]: > 50%; percent of the binding with p6 Gly (P2-MW) [9]: > 50%; percent of the binding with p6 Gly (P2-MW) [10]: > 50% |
